Data as given in patent US20230348564A1, “ANTI-CANCER PROTEINS” (UNICHEM LABORATORIES LTD, priority 2020, published 2023).

Experiments:
Astrocytoma (U87MG) = assay: cytotoxicity in Brain Tumor Cell lines by MTT assay; conditions: 72 h
[1] = system: VEGF release in MDA-MB-231 cells; assay: VEGF secretion in cancer cells (Human VEGF ELISA); format: cell-based; conditions: 24 h
Description: (§1) The cell lines were maintained in DMEM+10% […] (heat inactivated) at 37° C. with 5% CO2, and 95% humidity. Cells were counted and plated in 6-well plates for 24 h at a density of 0.5×10^6 cells/well. The cells were incubated overnight under growth conditions as described above so as to allow cell recovery and exponential growth. Cells were treated with each test item at different concentrations for 24h in serum free media. Doxorubicin was used as positive control. Secreted levels of VEGF were determined in supernatants after 24 hours using Human VEGF ELISA kit (R&D systems) as per manufacturer's protocol. Change in VEGF levels corresponding to each treatment was calculated using the following formula: […]

[2] = system: VEGF release in PANC-1 cells; assay: VEGF secretion in cancer cells (Human VEGF ELISA); format: cell-based; conditions: 24 h
Description: as §1

[3] = system: ZR-75-1 (Human ductal carcinoma); assay: Calcein AM cytotoxicity assay; conditions: 48h
Description: (§2) All the cancer cell lines were procured from National Centre for Cell Science, Pune (India). The cell lines were maintained under conditions as described in Table 21 below. The cell lines were sub-cultured by trypsinization followed by splitting the cell suspension into fresh flasks and supplementing with fresh culture medium.
(§3) All the cell lines were grown in specified media at 37° C. with 95% Humidity and […].
(§4) The cells were trypsinized, counted by Trypan blue method in Neuebauer's Chamber and plated in wells of flat bottom 96-well plate (dark walled plate, flat bottom) at the density corresponding to 10×10^3 cells/well/180 μl medium.
(§5) Following overnight incubation, the cells were treated with test item (20 μL) at concentrations ranging from 2.5-80 μg/mL, so that the total volume in each well is 200 μL.
(§6) The cells were incubated with the test items or positive control for a time period of 48h. Following incubation, the cell cytotoxicity was estimated using Calcein AM Cell Viability Assay Kit from R&D systems (Cat No. 4892-010-K).
(§7) Fluorescence was measured at 485 nm (excitation/528 run (emission) spectra using Synergy HT micro plate reader.
(§8) Percentage cytotoxicity wrt untreated cells was calculated using formula:
(§9) Cytotoxicity=[(RFUuntreated−RFUsample)/RFUuntreated]*100
(§10) RFU: relative fluorescence units
(§11) IC50 value was calculated using Graph-Pad Prism version 4.01 software.

[4] = system: AGS (Human stomach adenocarcinoma); assay: Calcein AM cytotoxicity assay; conditions: 48h
Description: as §2, §3, §4, §5, §6, §7, §8, §9, §10, §11

[5] = system: Human Primary mammary epithelial (HMEC) cells; assay: Calcein AM cytotoxicity assay; conditions: 48h
Description: as §2, §3, §4, §5, §6, §7, §8, §9, §10, §11

[6] = system: A549 (Human lung carcinoma); assay: Calcein AM cytotoxicity assay; conditions: 48h
Description: as §2, §3, §4, §5, §6, §7, §8, §9, §10, §11

[7] = system: THP-1 (Human acute monocytic leukemia); assay: Calcein AM cytotoxicity assay; conditions: 48h
Description: as §2, §3, §4, §5, §6, §7, §8, §9, §10, §11

[8] = system: PC-3 (Human Prostate Cancer); assay: Calcein AM cytotoxicity assay; conditions: 48h
Description: as §2, §3, §4, §5, §6, §7, §8, §9, §10, §11

[9] = system: MCF-7 (Human breast adenocarcinoma); assay: Calcein AM cytotoxicity assay; conditions: 48h
Description: as §2, §3, §4, §5, §6, §7, §8, §9, §10, §11

[10] = system: SiHa (Human cervix squamous cell carcinoma); assay: Calcein AM cytotoxicity assay; conditions: 48h
Description: as §2, §3, §4, §5, §6, §7, §8, §9, §10, §11

[11] = system: SW620 (Human Colorectal adenocarcinoma); assay: Calcein AM cytotoxicity assay; conditions: 48h
Description: as §2, §3, §4, §5, §6, §7, §8, §9, §10, §11

[12] = system: SK-Mel-28 (Human melanoma); assay: Calcein AM cytotoxicity assay; conditions: 48h
Description: as §2, §3, §4, §5, §6, §7, §8, §9, §10, §11

[13] = system: HT-29 (Human Colorectal adenocarcinoma); assay: Calcein AM cytotoxicity assay; conditions: 48h
Description: as §2, §3, §4, §5, §6, §7, §8, §9, §10, §11

[14] = system: SKOV-3 (Human Ovary adenocarcinoma); assay: Calcein AM cytotoxicity assay; conditions: 48h
Description: as §2, §3, §4, §5, §6, §7, §8, §9, §10, §11

[15] = system: PBMCs (Peripheral blood mononuclear cells); assay: Calcein AM cytotoxicity assay; conditions: 48h
Description: as §2, §3, §4, §5, §6, §7, §8, §9, §10, §11

[16] = system: PA-1 (Human Ovary carcinoma); assay: Calcein AM cytotoxicity assay; conditions: 48h
Description: as §2, §3, §4, §5, §6, §7, §8, §9, §10, §11

[17] = system: KB (Human cervical carcinoma); assay: Calcein AM cytotoxicity assay; conditions: 48h
Description: as §2, §3, §4, §5, §6, §7, §8, §9, §10, §11

IOMM-Lee cell line = assay: cell cycle distribution analysis by Propidium Iodide (PI) staining; format: cell-based, Human; conditions: 1 μg/mL-500 μg/mL
Description: The evaluation of pro-apoptotic effect of SEQ ID NO. 2 in brain tumor cell lines U251MG & IOMM Lee was conducted. The cells were treated with SEQ ID NO. 2 at various concentrations around IC50 values. Resultant effect on apoptosis was determined via externalization of Phosphatidyl Serine (PS) on cell membrane by Annexin-V staining, mitochondrial membrane depolarization by JC-1 staining and cell cycle distribution analysis by Propidium Iodide (PI) staining. Increase in apoptotic markers in U251MG & IOMM-Lee cell lines reflected the pro-apoptotic potential of SEQ ID NO. 2 in brain tumor. • Externalization of PS on cell membrane by Annexin-V staining on U251MG cell line: SEQ ID NO.

B1: SEQ ID NO. 2: recombinant lectin; variant of the S. rolfsii lectin amino acid sequence (reported as Rec-2 in WO 2010/095143) (protein)
chain: TYKITVRVYQTNPDAFFHPVEKTVWKYANGGTWTITDDQHVLTMGGSGTSGTLRFHADNGESFTATFGVHNYKRWCDIVTNLAADETGMVINQQYYSQKNREEARERQLSNYQVKNAKGRNFQIVYTEAEGNDLHANLIIG
modifications: In vitro synthesis
Astrocytoma (U87MG)
  IC50 Value: 98.88 µg/mL
[1]; 2.5 μg/mL
  Average absorbance at 450 nM: 0.970
  Percentage decrease in VEGF levels: −25.0%
  VEGF level: 579.3 pg/mL
[1]; 5 μg/mL
  Average absorbance at 450 nM: 0.763
  Percentage decrease in VEGF levels: 4.8%
  VEGF level: 441.0 pg/mL
[1]; 10 μg/mL
  Average absorbance at 450 nM: 1.072
  Percentage decrease in VEGF levels: −39.8%
  VEGF level: 647.5 pg/mL
[1]; 20 μg/mL
  Average absorbance at 450 nM: 1.552
  Percentage decrease in VEGF levels: −108.8%
  VEGF level: 967.3 pg/mL
[1]; 80 μg/mL
  Average absorbance at 450 nM: 2.222
  Percentage decrease in VEGF levels: −205.2%
  VEGF level: 1413.9 pg/mL
[2]; 2.5 μg/mL
  Average absorbance at 450 nM: 1.717
  Percentage decrease in VEGF levels: −5.5%
  VEGF level: 1077.5 pg/mL
[2]; 5 μg/mL
  Average absorbance at 450 nM: 1.821
  Percentage decrease in VEGF levels: −12.3%
  VEGF level: 1146.8 pg/mL
[2]; 10 μg/mL
  Average absorbance at 450 nM: 2.085
  Percentage decrease in VEGF levels: −29.5%
  VEGF level: 1322.6 pg/mL
[2]; 20 μg/mL
  Average absorbance at 450 nM: 2.202
  Percentage decrease in VEGF levels: −37.2%
  VEGF level: 1400.6 pg/mL
[2]; 80 μg/mL
  Average absorbance at 450 nM: 2.006
  Percentage decrease in VEGF levels: −24.4%
  VEGF level: 1269.9 pg/mL
MIAPaCa-2
  % Cytotoxicity: 47.5%
[3]
  IC50: >80 µg/mL
[4]
  IC50: 42.6 µg/mL
[5]
  IC50: >80 µg/mL
[6]
  IC50: >80 µg/mL
[7]
  IC50: >80 µg/mL
[8]
  IC50: >80 µg/mL
[9]
  IC50: >80 µg/mL
[10]
  IC50: >80 µg/mL
[11]
  IC50: >80 µg/mL
[12]
  IC50: >80 µg/mL
[13]
  IC50: 42.0 µg/mL
[14]
  IC50: >80 µg/mL
[15]
  IC50: >80 µg/mL
[16]
  IC50: 20.3 µg/mL
[17]
  IC50: 18.4 µg/mL
IOMM-Lee cell line
  increase in apoptotic population; Sub (G0/G1) as compared to Control (Untreated): 1.1-35.3 fold
